Substitutions are numbered along the chain they refer to. Names and notes keep the numbering of the source. Each block holds one molecule with its values, some of them ahead of it.
Legend:
GIPR W90Lfs*17 [1] = assay: cAMP accumulation; format: cell-based, human; conditions: normalized to WT efficacy at 100 pM; n = 5
Protocol: HEK293 (CRL-1573, American Type Culture Collection) and β-arrestin 1/2 knockout cells, generated from HEK293A[48], were used for cAMP measurement, homologues competition binding and β-arrestin 2 recruitment. For the internalization assay, endosomal signalling and basal receptor localization experiments, HEK293A (R70507, Thermo Fisher) cells were used. Both cell lines were cultured at 5% CO2 at 37 °C in Roswell Park Memorial Institute GlutaMAX-I supplemented with 10% fetal bovine serum, 180 units ml^−1 penicillin, and 45 g ml^−1 streptomycin. For the cAMP and binding experiments, cells were transfected with the calcium phosphate precipitation method[49]. The polyethyleneimine (PEI) transfection method was used for the β-arrestin 2 recruitment assays[50], endosomal signalling and basal receptor localization assays, while the lipofectamine transfection method was used for the internalization assay.
(§1) cAMP production was measured with the DiscoverX Hithunter cAMP assay according to the manufacturer’s protocol (DiscoverX). […] On the day of the assay, the cells were washed twice with HEPES-buffered saline (HBS) and incubated with HBS and 1 mM 3-isobutyl-1-methylxanthine for 30 min at 37 °C. […] After a 3-h incubation on a shaking table in the dark, the cAMP accumulation was measured based on luminescence with a Perkin Elmer EnVision 2104 Multilabel Microplate Reader. […]

GIPR C84Pfs*70 = assay: Homologous competition binding; set-up: species or system human; key: NB: no binding; conditions: n = 3
Protocol: (§2) Binding experiments were performed simultaneously with the same transiently transfected HEK293 cells used for the cAMP experiments to enable the correlation of receptor expression with signalling between assays. In brief, 1 day before the assay, the transfected cells were seeded in a clear 96-well plate. […] On the assay day, the cells were washed twice with 4 °C binding buffer (50 mM HEPES buffer (pH 7.2), 1 mM CaCl2, 5 mM MgCl2 and 0.5% (wt/vol) bovine serum albumin) and incubated for 15 minutes at 4 °C. […] After incubation, the cells were washed in ice-cold binding buffer and lysed with 200 mmol l^−1 NaOH with 1% sodium dodecyl sulphate for 30 min. The gamma radiation was measured with a 2470 Wizard2 Automatic Gamma Counter.
(§3) To obtain Emax, EC50, Bmax, Kd and IC50 values, we analysed the data with the non-linear regression curve fitting program GraphPad Prism Software 9 (GraphPad).
(§4) The Bmax was calculated according to the following equation[51]: Bmax=B0×IC50/[L] in which B0 represents the total specific binding and [L] is the ligand concentration. The equilibrium dissociation constant (Kd) was obtained with the equation[51]: Kd=IC50−[L]

GIPR W90Lfs*17 [2] = assay: Homologous competition binding; set-up: species or system human; conditions: normalized to WT GIPR; SEM 0.5, n = 3
Protocol: as §2, §3, §4

GIPR Y258Sfs*50 = assay: Homologous competition binding; set-up: species or system human; key: NB: no binding; conditions: n = 4
Protocol: as §2, §3, §4

GIPR E461* = molecular target: T1, GIPR E461* (Homo sapiens, UniProt P48546); assay: cAMP accumulation; format: cell-based
T1 construct: host or cells: HEK293
T1 sequence (P48546 22-460 limits assumed): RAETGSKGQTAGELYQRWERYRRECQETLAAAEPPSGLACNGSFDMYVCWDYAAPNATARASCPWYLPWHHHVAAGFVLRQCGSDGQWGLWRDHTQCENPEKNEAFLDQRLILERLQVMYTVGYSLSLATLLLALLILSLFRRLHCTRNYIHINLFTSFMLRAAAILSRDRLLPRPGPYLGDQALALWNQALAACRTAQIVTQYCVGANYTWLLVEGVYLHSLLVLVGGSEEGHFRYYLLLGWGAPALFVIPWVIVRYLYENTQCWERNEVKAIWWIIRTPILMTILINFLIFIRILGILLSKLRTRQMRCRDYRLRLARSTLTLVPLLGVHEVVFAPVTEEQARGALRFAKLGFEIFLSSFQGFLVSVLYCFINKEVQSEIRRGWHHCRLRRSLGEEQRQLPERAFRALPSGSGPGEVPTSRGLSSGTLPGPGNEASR
Protocol: (§5) HEK293 (CRL-1573, American Type Culture Collection) and β-arrestin 1/2 knockout cells, generated from HEK293A[48], were used for cAMP measurement, homologues competition binding and β-arrestin 2 recruitment. […] Both cell lines were cultured at 5% CO2 at 37 °C in Roswell Park Memorial Institute GlutaMAX-I supplemented with 10% fetal bovine serum, 180 units ml^−1 penicillin, and 45 g ml^−1 streptomycin. For the cAMP and binding experiments, cells were transfected with the calcium phosphate precipitation method[49].
(§6) cAMP production was measured with the DiscoverX Hithunter cAMP assay according to the manufacturer’s protocol (DiscoverX). […] On the day of the assay, the cells were washed twice with HEPES-buffered saline (HBS) and incubated with HBS and 1 mM 3-isobutyl-1-methylxanthine for 30 min at 37 °C. […] After the incubation, the assay medium was removed from the plate and the cells were washed with 30 µl PBS and treated with 40 µl enzyme donor–lysis buffer–chemiluminescent reagents and 10 µl cAMP antibodies for 60 min before 40 µl enzyme acceptor solution added. After a 3-h incubation on a shaking table in the dark, the cAMP accumulation was measured based on luminescence with a Perkin Elmer EnVision 2104 Multilabel Microplate Reader.

GIPR variants (groups) [3] = assay: cAMP accumulation; format: cell-based, human; conditions: for In vitro groups (cAMP): cAMP part of the in vitro group; for percentage_camp: cAMP production compared with WT; for Beta, cAMP: in vitro cAMP production per GIPR variant
GIPR variants (groups) [4] = assay: β-arrestin 2 recruitment (BRET); conditions: for In vitro groups (β-arrestin): arr part of the in vitro group; for Beta, Barr: in vitro β-arrestin recruitment per GIPR variant;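 on all read-outs here: BRET readout of β-arrestin 2 recruitment in transiently transfected HEK293 cells expressing WT GIPR or a GIPR variant plus GPCR kinase 2, Rluc8 donor and citrine acceptor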
GIPR E463Q = molecular target: T2, GIPR E463Q (Homo sapiens, UniProt P48546, E463Q); assay: cAMP accumulation; format: cell-based
T2 construct: host or cells: HEK293
T2 sequence (P48546 22-466 E463Q): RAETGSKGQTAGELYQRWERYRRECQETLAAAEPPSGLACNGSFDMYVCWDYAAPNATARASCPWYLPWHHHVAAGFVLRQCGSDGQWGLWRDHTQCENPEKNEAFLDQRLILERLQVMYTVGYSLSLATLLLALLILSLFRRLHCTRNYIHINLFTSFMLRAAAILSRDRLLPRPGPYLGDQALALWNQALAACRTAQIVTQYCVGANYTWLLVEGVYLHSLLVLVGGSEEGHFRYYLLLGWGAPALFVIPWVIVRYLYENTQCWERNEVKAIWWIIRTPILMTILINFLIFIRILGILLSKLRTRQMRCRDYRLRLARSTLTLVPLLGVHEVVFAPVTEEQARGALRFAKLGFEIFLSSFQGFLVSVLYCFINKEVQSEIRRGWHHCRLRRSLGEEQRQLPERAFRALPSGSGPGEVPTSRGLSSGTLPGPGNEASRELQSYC
Protocol: as §5, §6

GIPR R38L = molecular target: T3, GIPR R38L (Homo sapiens, UniProt P48546, R38L); assay: cAMP accumulation; format: cell-based
T3 construct: host or cells: HEK293
T3 sequence (P48546 22-466 R38L): T2 sequence (P48546 22-466 E463Q) with R17L, Q442E
Protocol: HEK293 (CRL-1573, American Type Culture Collection) and β-arrestin 1/2 knockout cells, generated from HEK293A[48], were used for cAMP measurement, homologues competition binding and β-arrestin 2 recruitment. […] Both cell lines were cultured at 5% CO2 at 37 °C in Roswell Park Memorial Institute GlutaMAX-I supplemented with 10% fetal bovine serum, 180 units ml^−1 penicillin, and 45 g ml^−1 streptomycin. For the cAMP and binding experiments, cells were transfected with the calcium phosphate precipitation method[49]. The polyethyleneimine (PEI) transfection method was used for the β-arrestin 2 recruitment assays[50], endosomal signalling and basal receptor localization assays, while the lipofectamine transfection method was used for the internalization assay.
as §1

GIPR T25R = molecular target: T4, GIPR T25R (Homo sapiens, UniProt P48546, T25R); assay: cAMP accumulation; format: cell-based
T4 construct: host or cells: HEK293
T4 sequence (P48546 22-466 T25R): T2 sequence (P48546 22-466 E463Q) with T4R, Q442E
Protocol: as §5
cAMP production was measured with the DiscoverX Hithunter cAMP assay according to the manufacturer’s protocol (DiscoverX). […] On the day of the assay, the cells were washed twice with HEPES-buffered saline (HBS) and incubated with HBS and 1 mM 3-isobutyl-1-methylxanthine for 30 min at 37 °C. […] After the incubation, the assay medium was removed from the plate and the cells were washed with 30 µl PBS and treated with 40 µl enzyme donor–lysis buffer–chemiluminescent reagents and 10 µl cAMP antibodies for 60 min before 40 µl enzyme acceptor solution added. After a 3-h incubation on a shaking table in the dark, the cAMP accumulation was measured based on luminescence with a Perkin Elmer EnVision 2104 Multilabel Microplate Reader. […]

GIPR R43G = molecular target: T5, GIPR R43G (Homo sapiens, UniProt P48546, R43G); assay: cAMP accumulation; format: cell-based
T5 construct: host or cells: HEK293
T5 sequence (P48546 22-466 R43G): T2 sequence (P48546 22-466 E463Q) with R22G, Q442E
Protocol: as §5, §6

Kd (Binding) (GIPR C84Pfs*70): NB | Binding (Bmax) (GIPR C84Pfs*70; normalized to WT GIPR): NB | Binding (Bmax) (GIPR W90Lfs*17 [2]): 1.36 | Kd (Binding) (GIPR Y258Sfs*50): NB | Binding (Bmax) (GIPR Y258Sfs*50; normalized to WT GIPR): NB
Molecule: GIP(1-42)
cAMP (Efficacy of 100 pM) (GIPR W90Lfs*17 [1]): 0.531

Efficacy at 100pmol (cAMP) (GIPR E461*): 1.495
B1: E461* (protein)
chain: T1 sequence (P48546 22-460 limits assumed)
In vitro groups (cAMP) (GIPR variants (groups) [3]): GoF_camp | percentage_camp (GIPR variants (groups) [3]): >50% cAMP | In vitro groups (β-arrestin) (GIPR variants (groups) [4]): WT-like_arr

Efficacy at 100pmol (cAMP) (GIPR E463Q): 0.9097
B2: E463Q (protein)
chain: T2 sequence (P48546 22-466 E463Q)
In vitro groups (cAMP) (GIPR variants (groups) [3]): WT-like_camp | percentage_camp (GIPR variants (groups) [3]): >50% cAMP | Beta, cAMP (GIPR variants (groups) [3]): 0.9097 | In vitro groups (β-arrestin) (GIPR variants (groups) [4]): WT-like_arr | Beta, Barr (GIPR variants (groups) [4]): 0.4933

Efficacy at 100pmol (cAMP) (GIPR R38L): 0.843
B3: R38L (protein)
chain: T2 sequence (P48546 22-466 E463Q) with R17L, Q442E
In vitro groups (cAMP) (GIPR variants (groups) [3]): WT-like_camp | percentage_camp (GIPR variants (groups) [3]): >50% cAMP | Beta, cAMP (GIPR variants (groups) [3]): 0.843 | In vitro groups (β-arrestin) (GIPR variants (groups) [4]): WT-like_arr | Beta, Barr (GIPR variants (groups) [4]): 0.8228

Efficacy at 100pmol (cAMP) (GIPR T25R): 0.6972
B4: T25R (protein)
chain: T2 sequence (P48546 22-466 E463Q) with T4R, Q442E
In vitro groups (cAMP) (GIPR variants (groups) [3]): WT-like_camp | percentage_camp (GIPR variants (groups) [3]): >50% cAMP | Beta, cAMP (GIPR variants (groups) [3]): 0.6972 | In vitro groups (β-arrestin) (GIPR variants (groups) [4]): LoF_arr | Beta, Barr (GIPR variants (groups) [4]): 0.193

Efficacy at 100pmol (cAMP) (GIPR R43G): 1.1583
B5: R43G (protein)
chain: T2 sequence (P48546 22-466 E463Q) with R22G, Q442E
In vitro groups (cAMP) (GIPR variants (groups) [3]): WT-like_camp | percentage_camp (GIPR variants (groups) [3]): >50% cAMP | Beta, cAMP (GIPR variants (groups) [3]): 1.1583 | In vitro groups (β-arrestin) (GIPR variants (groups) [4]): LoF_arr | Beta, Barr (GIPR variants (groups) [4]): 0.4783
